We go through 22 sequences from the Immune Epitope Database (IEDB).

The target of test [1] is HLA-A*68:02. Nature of the test: IEDB peptide-MHC binding, purified MHC/competitive/radioactivity; ≥ and ≤ were set here for values at or beyond the usual limits of such assays.
Test [2] deals with HLA-A*02:02. The description is as above.
Test [3] concerns the target HLA-A*02:06. The description is as above.
The target of test [4] is HLA-A*02:01. Described as above.
For test [5], the target named is HLA-A*02:03. Nature of the test: IEDB peptide-MHC binding, cellular MHC/competitive/fluorescence; ≥ and ≤ were set here for values at or beyond the usual limits of such assays.
Test [6] concerns the target HLA-A*02:01. The test is described as above.
In test [7] the target is HLA-A*02:03. Nature of the test: IEDB peptide-MHC binding, purified MHC/competitive/radioactivity; ≥ and ≤ were set here for values at or beyond the usual limits of such assays.
For test [8], the target named is HLA-A*68:02. The test is described as follows: IEDB peptide-MHC binding, cellular MHC/competitive/fluorescence; ≥ and ≤ were set here for values at or beyond the usual limits of such assays.
Test [9] concerns the target HLA-A*02:02. The description is as above.
Test [10] has as its target HLA-A*02:06. The description is as above.
The mark [11] stands for this setting: source organism: Mammarenavirus choriomeningitidis.
Setting [12] is: source organism: Mammarenavirus brazilense.
Where [13] appears, read: source organism: Vaccinia virus WR.
Where [14] appears, read: source organism: Influenza A virus.
[15] abbreviates: source organism: Mammarenavirus guanaritoense.
Where [16] appears, read: source organism: Mammarenavirus whitewaterense.

For orientation: IC50 means the concentration needed to halve the response being measured. In the case of MSCDDVVFGI, the IC50 is 54 nM in the test with HLA-A*68:02 [1] (setting [11]); 1050 nM in the test with HLA-A*02:02 [2] (setting [11]); 250 nM in the test with HLA-A*02:06 [3] (setting [11]); 1010 nM with HLA-A*02:01 [4] (setting [11]); 12.1 µM in the test with HLA-A*02:03 [5] (setting [11]).

For the sequence MSPALFFTFL, the IC50 in the test with HLA-A*68:02 [1] (setting [12]) worked out at 102 nM; with HLA-A*02:02 [2] (setting [12]), 547 nM; with HLA-A*02:06 [3] (setting [12]), 834 nM; in the test with HLA-A*02:03 [5] (setting [12]), 7.64 µM; with HLA-A*02:01 [6] (setting [12]), 6.38 µM.

On to MVEYLENQL, for which the IC50 stood at 591 nM with HLA-A*68:02 [1] (setting [13]); 343 nM with HLA-A*02:02 [2] (setting [13]); 3960 nM in the test with HLA-A*02:06 [3] (setting [13]); 6.46 µM with HLA-A*02:03 [5] (setting [13]); 12 µM with HLA-A*02:01 [6] (setting [13]).

As for NAVTTNNLL, the IC50 with HLA-A*68:02 [1] (setting [13]) was determined as 4000 nM; in the test with HLA-A*02:02 [2] (setting [13]), 1860 nM; with HLA-A*02:06 [3] (setting [13]), 202 nM; with HLA-A*02:03 [5] (setting [13]) it was 24.9 µM.

Turning to SICLDYIIV, the IC50 in the test with HLA-A*68:02 [1] (setting [13]) was determined as 2930 nM; with HLA-A*02:02 [2] (setting [13]), 1460 nM; in the test with HLA-A*02:06 [3] (setting [13]), 689 nM; with HLA-A*02:01 [4] (setting [13]), 579 nM; with HLA-A*02:03 [5] (setting [13]), 8.65 µM.

Regarding SNPNLFWAV, the IC50 was determined as 79 nM with HLA-A*68:02 [1] (setting [12]); 170 nM in the test with HLA-A*02:02 [2] (setting [12]); 35 nM with HLA-A*02:06 [3] (setting [12]); 1460 nM with HLA-A*02:01 [4] (setting [12]); 6.16 µM with HLA-A*02:03 [5] (setting [12]).

Take STVDVRNIVT: the IC50 stood at 475 nM with HLA-A*68:02 [1] (setting [13]); 3060 nM with HLA-A*02:02 [2] (setting [13]); 1570 nM with HLA-A*02:06 [3] (setting [13]); 3050 nM with HLA-A*02:01 [4] (setting [13]); 11.6 µM with HLA-A*02:03 [5] (setting [13]).

For the sequence SVDIETAIRA, the IC50 stood at 834 nM in the test with HLA-A*68:02 [1] (setting [13]); 2830 nM with HLA-A*02:02 [2] (setting [13]); 1030 nM with HLA-A*02:06 [3] (setting [13]); 7.62 µM in the test with HLA-A*02:03 [5] (setting [13]); 5.14 µM with HLA-A*02:01 [6] (setting [13]).

As for SVDVDIYDA, the IC50 worked out at 345 nM with HLA-A*68:02 [1] (setting [13]); 1200 nM with HLA-A*02:02 [2] (setting [13]); 953 nM in the test with HLA-A*02:06 [3] (setting [13]); 11.9 µM in the test with HLA-A*02:03 [5] (setting [13]); 13.3 µM in the test with HLA-A*02:01 [6] (setting [13]).

Turning to TAGNKVDVDI, the half-inhibitory concentration (IC50) with HLA-A*02:03 [7] (setting [13]) is 3500 nM; with HLA-A*68:02 [8] (setting [13]) it was 9.83 µM; with HLA-A*02:02 [9] (setting [13]), 11 µM; in the test with HLA-A*02:06 [10] (setting [13]), 38.1 µM; with HLA-A*02:01 [6] (setting [13]), 40.2 µM.

As for TIILNKIVQL, the IC50 with HLA-A*68:02 [1] (setting [13]) came out at 2670 nM; in the test with HLA-A*02:02 [2] (setting [13]), 1760 nM; in the test with HLA-A*02:06 [3] (setting [13]) it was 30 nM; in the test with HLA-A*02:01 [4] (setting [13]) it was 86 nM; in the test with HLA-A*02:03 [5] (setting [13]) it was 49.3 µM.

TLNRNQPAA: the IC50 with HLA-A*02:03 [7] (setting [14]) was 583 nM; with HLA-A*68:02 [8] (setting [14]) it was at least 70 µM; with HLA-A*02:02 [9] (setting [14]), 11.4 µM; with HLA-A*02:06 [10] (setting [14]), at least 70 µM; with HLA-A*02:01 [6] (setting [14]) it was 15.2 µM.

Turning to TLNTMTKDA, the IC50 in the test with HLA-A*02:03 [7] (setting [14]) is 581 nM; with HLA-A*68:02 [8] (setting [14]), at least 70 µM; with HLA-A*02:02 [9] (setting [14]), 14.7 µM; in the test with HLA-A*02:06 [10] (setting [14]), at least 70 µM; with HLA-A*02:01 [6] (setting [14]), 10.2 µM.

As to TNAEFTFQL, the half-maximal inhibitory concentration (IC50) turned out to be 5.3 nM with HLA-A*68:02 [1] (setting [15]); 404 nM in the test with HLA-A*02:02 [2] (setting [15]); 3620 nM with HLA-A*02:06 [3] (setting [15]); 15.1 µM in the test with HLA-A*02:03 [5] (setting [15]); 5.02 µM with HLA-A*02:01 [6] (setting [15]).

With TTPLISFFGL, the IC50 in the test with HLA-A*68:02 [1] (setting [13]) was 198 nM; with HLA-A*02:02 [2] (setting [13]), 5000 nM; with HLA-A*02:06 [3] (setting [13]), 3360 nM; in the test with HLA-A*02:03 [5] (setting [13]), 17.6 µM; with HLA-A*02:01 [6] (setting [13]), 27.3 µM.

Consider TTTFITVLT, for which the 50% inhibitory concentration (IC50) stood at 33 nM with HLA-A*68:02 [1] (setting [13]); 2460 nM in the test with HLA-A*02:02 [2] (setting [13]); 1090 nM with HLA-A*02:06 [3] (setting [13]); 2320 nM with HLA-A*02:01 [4] (setting [13]); 8.59 µM with HLA-A*02:03 [5] (setting [13]).

As to VCFWSTLFYV, the IC50 in the test with HLA-A*68:02 [1] (setting [16]) was 525 nM; with HLA-A*02:02 [2] (setting [16]) it was 349 nM; in the test with HLA-A*02:06 [3] (setting [16]), 1130 nM; with HLA-A*02:01 [4] (setting [16]) it was 904 nM; in the test with HLA-A*02:03 [5] (setting [16]) it was 7.02 µM.

For VIRNEVNDT, the IC50 is 820 nM with HLA-A*02:03 [7] (setting [13]); 28.3 µM in the test with HLA-A*68:02 [8] (setting [13]); 19.9 µM with HLA-A*02:02 [9] (setting [13]); at least 70 µM with HLA-A*02:06 [10] (setting [13]); at least 70 µM in the test with HLA-A*02:01 [6] (setting [13]).

As for VTKRDESSI, the IC50 with HLA-A*02:03 [7] (setting [13]) was 2140 nM; with HLA-A*68:02 [8] (setting [13]), 8.1 µM; in the test with HLA-A*02:02 [9] (setting [13]) it was 8.05 µM; in the test with HLA-A*02:06 [10] (setting [13]), 38.1 µM; with HLA-A*02:01 [6] (setting [13]), at least 70 µM.

Turning to WIKNLETYT, the IC50 was 637 nM with HLA-A*02:03 [7] (setting [13]); at least 70 µM in the test with HLA-A*68:02 [8] (setting [13]); 18.3 µM with HLA-A*02:02 [9] (setting [13]); 8.2 µM in the test with HLA-A*02:06 [10] (setting [13]); 49.5 µM with HLA-A*02:01 [6] (setting [13]).

Take YCNYSKFWYL: the IC50 with HLA-A*68:02 [1] (setting [11]) amounted to 925 nM; in the test with HLA-A*02:02 [2] (setting [11]), 1110 nM; with HLA-A*02:06 [3] (setting [11]), 1060 nM; with HLA-A*02:01 [4] (setting [11]), 1710 nM; with HLA-A*02:03 [5] (setting [11]), 9.64 µM.

As to YVVIVENDNV, the IC50 with HLA-A*68:02 [1] (setting [13]) came to 99 nM; with HLA-A*02:02 [2] (setting [13]) it was 2340 nM; in the test with HLA-A*02:06 [3] (setting [13]), 60 nM; with HLA-A*02:01 [4] (setting [13]), 547 nM; with HLA-A*02:03 [5] (setting [13]) it was 11 µM.
